System: N[C@@H](CCC(=O)N[C@H]1CSSC[C@H](NC(=O)CC[C@H](N)C(=O)O)C(=O)NCC(=O)NCCCNCCCCNC(=O)CNC1=O)C(=O)O
Assay: purified protein, by the assay type
Details: pH 7.4, 25.0 °C

Substance	Km (other: 340 nm assay)	Km (other: saturating NADPH)
TbTryR (Trypanosoma brucei brucei TREU927)	6.9 ± 0.7 µM	
TbTryR (recombinant T. b. brucei trypanothione reductase) (Trypanosoma brucei brucei TREU927)		2.35 ± 0.07 µM

From PMC2789240, “Comparative structural, kinetic and inhibitor studies of Trypanosoma brucei trypanothione reductase with T. cruzi^” (Molecular and Biochemical Parasitology, 2010)
